Measurements published in paper PMC6858323, “Multiple conformations facilitate PilT function in the type IV pilus” (Nature Communications, 2019).

B1: PilT^Pa two-hybrid fusion from pKT25::PilT^Pa (wild type) [Pseudomonas aeruginosa] / PilC^Pa two-hybrid fusion from pUT18C::PilC^Pa [Pseudomonas aeruginosa] (parent)
chain 1: MDITELLAFSAKQGASDLHLSAGLPPMIRVDGDVRRINLPPLEHKQVHALIYDIMNDKQRKDFEEFLETDFSFEVPGVARFRVNAFNQNRGAGAVFRTIPSKVLTMEELGMGEVFKRVSDVPRGLVLVTGPTGSGKSTTLAAMLDYLNNTKYHHILTIEDPIEFVHESKKCLVNQREVHRDTLGFSEALRSALREDPDIILVGEMRDLETIRLALTAAETGHLVFGTLHTTSAAKTIDRVVDVFPAEEKAMVRSMLSESLQSVISQTLIKKIGGGRVAAHEIMIGTPAIRNLIREDKVAQMYSAIQTGGSLGMQTLDMCLKGLVAKGLISRENAREKAKIPENF
chain 2: MLVKAHLRKQGINPLKVRKKGISLLGAGKKVKPMDIALFTRQMATMMGAGVPLLQSFDIIGEGFDNPNMRKLVDEIKQEVSSGNSLANSLRKKPQYFDELYCNLVDAGEQSGALENLLDRVATYKEKTESLKAKIRKAMTYPIAVIIVALIVSAILLIKVVPQFQSVFQGFGAELPAFTQMVVNLSEFLQEWWLAVIVGVGAIGFTFKELHKRSKKFRDTLDRTILKLPIFGGIVYKSAVARYARTLSTTFAAGVPLVDALDSVSGATGNIVFKNAVSKIKQDVSTGMQLNFSMRTTSVFPNMAIQMTAIGEESGSLDEMLSKVASYYEEEVDNAVDNLTTLMEPMIMAVLGVLVGGLIVAMYLPIFQLGNVVG
B2: PilT^Pa two-hybrid fusion from pKT25::PilT^Pa (wild type) [Pseudomonas aeruginosa] / PilT^Pa two-hybrid fusion from pUT18C::pilT [Pseudomonas aeruginosa] (parent)
chain 1: B1 chain 1
chain 2: B1 chain 1

Variants of: B1
Test: bacterial two-hybrid (BACTH), β-galactosidase activity
Details: with PilC^Pa two-hybrid fusion from pUT18C::PilC^Pa [Pseudomonas aeruginosa]; E. coli BTH101; n = 3; parent: 650; read off a plot

| Variant | response [Miller units] |
| --- | --- |
| chain 1 E204A | 460 |
| chain 1 H229A | 650 |

Variants of: B2
Test: as above
Details: with PilT^Pa two-hybrid fusion from pUT18C::pilT [Pseudomonas aeruginosa]; E. coli BTH101; n = 3; parent: 9.3e+03; read off a plot

| Variant | response [Miller units] |
| --- | --- |
| chain 1 H229A | 11000 |
| chain 1 R123D | 8000 |
| chain 1 D242K | 8000 |
| chain 1 E219K | 8600 |
| chain 1 R294E | 8600 |
| chain 1 K58R | 11000 |
| chain 1 K58Q | 10000 |
| chain 1 K58A | 10000 |
| chain 1 E258A | 9300 |
| chain 1 E204A | 8000 |
| chain 1 D31K | 7000 |
| chain 1 T216R | 10000 |
| chain 1 R239A | 11000 |
